According to US20240166765A1, “INFLAMMATORY DISEASE TREATMENT USING ANTI-TISSUE FACTOR ANTIBODIES” (Iconic Therapeutics LLC, priority 2020, published 2024):

Assays:
[1] = target: r141-194_h (rat/human chimera) (UniProt P42533); experiment: live cell staining, flow cytometry, HEK293 cells expressing the construct
[2] = target: h1-107_r (human/rat chimera); experiment: as above
[3] = target: r141-194_h (rat/human chimera) (UniProt P42533); experiment: live cell staining, flow cytometry
[4] = target: h1-107_r (human/rat chimera); experiment: live cell staining, flow cytometry

h1-107_r (human/rat chimera), sequence (chain, as listed by the source mutant limits assumed): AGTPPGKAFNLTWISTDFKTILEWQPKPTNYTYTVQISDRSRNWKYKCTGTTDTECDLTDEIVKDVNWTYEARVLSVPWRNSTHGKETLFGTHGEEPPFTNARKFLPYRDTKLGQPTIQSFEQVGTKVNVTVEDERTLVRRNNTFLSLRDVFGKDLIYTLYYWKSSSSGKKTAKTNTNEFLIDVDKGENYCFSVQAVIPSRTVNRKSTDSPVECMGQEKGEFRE

Substance: 5G9 (antibody)
- Percentage antibody binding to TF construct relative to hTF [1]: < 50%
- Percentage antibody binding to TF construct relative to hTF [2]: < 50%
- Percent antibody binding to TF construct relative to hTF [3]: 32%
- Percent antibody binding to TF construct relative to hTF [4]: 41%
